Assay results: patent publication US20170165321A1, “METHOD FOR REDUCING AND/OR DELAYING PATHOLOGICAL EFFECTS OF HUMAN IMMUNODEFICIENCY VIRUS I (HIV) OR FOR REDUCING THE RISK OF DEVELOPING ACQUIRED IMMUNODEFICIENCY SYNDROME (AIDS)” (Bionor Immuno AS, priority 2014, published 2017)
Where no end group is shown, it is not given here.

Assays:
[1] = tested on: HIV-1 expression in latently infected cell lines and primary T cells; details: cited from earlier work
HIV-specific T-cells = details: IMiD present during in vitro T-cell stimulation; Keersmaecker et al.; cited from earlier work
HIV positive subjects [2] = experiment: Phase II dose-finding study CTN B-HIV 2/2001; assay type: in vivo, human
Description: The Phase II dose-finding study (CTN B-HIV 2/2001) enrolled 40 HIV positive subjects, of which 38 completed the trial. Subjects were maintained on ART and treated with 10 immunizations at a dose of 0.4 mg (20 subjects) or 1.2 mg (20 subjects) per Vacc 4x injection, over a period of 26 weeks. Immunizations with Vacc 4x were performed following injection of rhu-GM-CSF (Leucomax [molgramostim]) as a local adjuvant. ART was interrupted from Week 26 to Week 30 to allow exposure to the subject's own virus (autologous immunization). ART was resumed from Week 30 to Week 38 to allow maturation of immune responses to the Vacc 4x peptides and to the subject's own virus. ART was discontinued from Week 38 to Week 52 when the study was formally concluded. […] One subject experienced a transient vasovagal reaction in conjunction with immunization and the DTH test at Week 26 and Week 38. A second subject experienced a vasovagal reaction in conjunction with the DTH test at Week 52. For the laboratory parameters, vital signs, and performance status, no changes attributable to immunization were observed.
The dose-dependent differences in DTH reactions were maintained throughout the study. […] ART was interrupted at Week 38 with planned restart when CD4 counts fell to less than 200/μL or when AIDS- or HIV related events were observed (i.e. clinical practice).
However, 14 weeks after the last interruption of ART (Week 52), the mean CD4 counts were still above 200×10^6 cells/L. No difference between the LD and the HD groups was observed. The majority of subjects remained off ART following completion of the study (Week 52); permission was given to follow the subjects until they resumed ART. The duration of treatment interruption was linked to immune responsiveness to the peptides. […] The median treatment interruption achieved for all the subjects that participated in the Vacc-4x Phase II clinical study was 31 months.

rats = experiment: Single-dose intravenous toxicity study in rats; assay type: in vivo, rat
Description: (§1) Toxicity studies were performed in mice and rats on the peptide composition of the vaccine in Example 2. The mouse was selected for the study to provide comparative data from a second commonly used rodent species. The test substance was a mixture of four peptides supplied as one vial containing lyophilised material for reconstitution with physiological saline, and dose levels were expressed in terms of total peptide load. The individual peptides was present in ratio 1:1:1:1 w/w giving dose levels of each peptide of 0.0075 mg/kg body weight, 0.075 mg/kg body weight and 0.75 mg/kg body weight, which are up to 500 fold the intended human dose. The test animals were divided into four groups of ten animals each (five males and five females); a saline control group and groups for low, intermediate and high doses. The test composition was administered once, by intravenous infusion into a tail vein at a dose rate of 3 ml/minute. The animals were killed at day 15 and 16 by intraperitoneal injection of sodium pentobarbitone.

HIV positive subjects [3] = experiment: Open-label re-boost follow-up study CTN BI Vacc-4x/2009/1; assay type: in vivo, human
Text: CTN BI Vacc-4x/2009/1 was an open-label follow-up of study CTN B-HIV-2/2001 to determine whether a re-boost with Vacc-4x could reactivate or increase the immune response obtained during the immunization performed in the CTN B-HIV-2/2001 study. The secondary objectives were to evaluate: the in vivo immunogenicity of Vacc-4x by evaluation of DTH and to compare the DTH response to DTH in the initial study; the effect of Vacc-4x on CD4 counts, CD8 counts and HIV viral RNA; and the safety and tolerability of Vacc-4x. All 26 subjects included in the study received two booster administrations of Vacc-4x.

[4] = tested on: patients infected with HIV-1; experiment: Phase II randomized placebo-controlled study CT-BI Vacc-4x 2007/1; assay type: in vivo, human
Description: The Phase II Study CT-BI Vacc-4x 2007/1 (EudraCT Number 2007-006302-13) was performed in US and Europe (UK, Germany, Spain and Italy). The study was a randomized, double-blind, multicenter, immunogenicity study of Vacc-4x versus placebo in patients infected with HIV-1 who have maintained an adequate response to ART. The primary objective was to evaluate the effect of Vacc-4x immunizations versus placebo on CD4 counts, T-cell function (ELISPOT, T-cell proliferative responses and intracellular cytokine staining) and the response to interruption of ART. The necessity to resume ART between the interruption of ART at Week 28 and the end of the study at Week 52, due to decreased CD4 count or increased viral loads, was monitored as one of the primary efficacy endpoints.

[5] = Osmolality of reconstituted Vacc-4x drug product; assay type: physicochemical
Description: The range of 10-100 mOsm/kg was defined based on the result obtained for the technical sample. Potential variability due to the four peptides is taken into account. For the drug product, approximately 1 mg of each of the four Vacc-4x peptides was used. The lyophilisate is reconstituted with 0.30 mL of WFI. Taking the acetic acid contents of the peptides listed in table 1 into account, the acetic acid content of Vacc-4x is approximately 0.40 mg in 0.30 mL of solution. The theoretical osmolality is approximately 23 mOsmol/L by calculation, which correlates well with the values determined in the Vacc-4x batches (20-23 mOsmol/kg).

rabbit = experiment: Rabbit study of intradermal Vacc-4x with concomitant GM-CSF; assay type: in vivo
Description: In a rabbit study the effect of Vacc-4x was evaluated in the presence of concomitant GM-CSF, the adjuvant used in the clinical program.

mice = experiment: Single-dose intravenous toxicity study in mice; assay type: in vivo, mouse
Description: as §1

[6] = tested on: HIV-1 DNA (HIV-1 gag gene); experiment: Proviral DNA by real-time PCR in re-boosting study CT-BI Vacc-4x 2012/1; assay type: in vivo, human; details: PP
Description: The study CT-BI Vacc-4x 2012/1 (EudraCT Number: 2012-002281-12) is an open label, multicenter, follow-up, re-boosting study of subjects who previously completed the immunization regimen with Vacc-4x active and stopped ART (at Week 28) in the CT-BI Vacc-4x 2007/1 Study (EudraCT Number 2007-006302-13). No restart of ART is required. The subjects will be re-boosted with two immunizations (Visit 2 and Visit 3) of Vacc-4x, 1.2 mg peptides (12 mg/mL), with a 2 week interval between immunizations.
HIV-1 DNA levels will be determined by real-time PCR (Taqman) assay targeting HIV-1 gag gene. Briefly, DNA for each subject at visit 2, 4, 6, 9 and 10 will be extracted from total PBMCs (1-4 million cells), eluted in appropriate storage buffer, quantified and stored at −20° C. until used. Equal amounts of DNA (≈300 ng) will be used to quantify gag and albumin genes in order to determine the number of copies of HIV-DNA per million of cells.
There was a decrease in proviral DNA levels of approximately 50% after immunization while on ART, based on geometric means.

[7] = single intravenous dose, total peptide load
[8] = single intravenous infusion, up to 0.75 mg/kg of each peptide
[9] = 0.4 mg/injection, 12 immunizations
[10] = 26 subjects, two booster administrations

C/C=C1\NC(=O)[C@H]2CSSCC/C=C/[C@H](CC(=O)N[C@H](C(C)C)C(=O)N2)OC(=O)[C@H](C(C)C)NC1=O [romidepsin, (1S,4S,7Z,10S,16E,21R)-7-ethylidene-4,21-bis(1-methylethyl)-2-oxa-12,13-dithia-5,8,20,23-tetraazabicyclo[8.7.6] tricos-16-ene-3,6,9,19,22-pentone]
activation of HIV-1 expression [1]: potently activates HIV-1 expression

Nc1cccc2c1CN(C1CCC(=O)NC1=O)C2=O (centres unmarked) [Lenalidomide]
function of the T-cells (HIV-specific T-cells): a number of improvements in the function of the T-cells

Nc1cccc2c1C(=O)N(C1CCC(=O)NC1=O)C2=O (centres unmarked) [pomalidomide]
function of the T-cells (HIV-specific T-cells): a number of improvements in the function of the T-cells

B1: Vacc-4x: four synthetic peptides (Vacc-10, Vacc-11, Vacc-12, Vacc-13 acetate) corresponding to conserved domains on HIV-1 p24; SEQ ID NOs 3, 6, 11, 18 (peptide)
chain 1: APTRAKRRVVQREKRAV
chain 2: DRPEGIEEEGGERDR
chain 3: QLLLNGSLAEEEIVI
chain 4: GGAKRRVVGGAKRRVVGGQREKR
modifications: also: acetate salts
subjects with treatment-related AEs (HIV positive subjects [2]; 0.4 mg group (20 subjects)): 8 subjects | DTH positive reactions (HIV positive subjects [2]; 0.4 mg or 1.2 mg per injection): observed for all subjects | SAEs during the period of immunization (HIV positive subjects [2]; 0.4 mg or 1.2 mg per injection): No SAEs were reported | subjects with treatment-related AEs (HIV positive subjects [2]; 1.2 mg group (20 subjects)): 12 subjects | DTH positive responses (induration and erythema), high dose versus low dose (HIV positive subjects [2]; 1.2 mg versus 0.4 mg): statistically significantly higher in the high dose | median treatment interruption (HIV positive subjects [2]; all subjects of the Phase II study, off ART): 31 months | subjects with treatment-related AEs (HIV positive subjects [2]; both dose groups, 40 subjects, 10 immunizations over 26 weeks): 20 subjects | decline in CD4 cells versus similar subjects who stopped treatment without Vacc-4x (HIV positive subjects [2]; comparison with subjects in the Netherlands): significantly slower decline in CD4 cells | CD4 counts during the immunization period (HIV positive subjects [2]; on ART): stable or increased | safety margin over the planned human dose level (rats; from no effect level): 500 fold | no effect level (rats; [7]): > 3 mg/kg | adverse reactions (rats; [8]): no adverse reactions | serious adverse events (HIV-positive subjects; [9]): no serious adverse events (SAEs) occurred | severity of adverse reactions (HIV-positive subjects; [9]): mild or moderate in severity except for severe local reactions in one subject | antibody response to Vacc-4x peptides (HIV-positive subjects; 11 subjects): no antibody response | cell-mediated immune response by delayed-type hypersensitivity (DTH) skin reaction (HIV-positive subjects; 11 subjects): All subjects experienced a cell-mediated immune response | subjects with cell-mediated immune response by γ IFN release ELISPOT (HIV-positive subjects; 11 subjects): 45 % of the subjects | treatment related fatigue-vertigo (HIV-positive subjects; 11 subjects): four | treatment related influenza-like symptoms (HIV-positive subjects; 11 subjects): two | treatment related irritated skin at injection site (HIV-positive subjects; 11 subjects): two | treatment related painful injection (HIV-positive subjects; 11 subjects): seven | subjects with events judged related to treatment (HIV-positive subjects; 11 subjects, 0.4 mg/injection, 12 immunizations): nine | subjects with one or more adverse events (HIV-positive subjects; 11 subjects, 12 immunizations of 0.4 mg/injection over 26 weeks, rhu-GM-CSF adjuvant): All subjects experienced one or more adverse events | adverse events possibly/probably related to the study treatment (HIV positive subjects [3]; 26 subjects): 60 | patients reporting swelling related to the immunization (HIV positive subjects [3]; 26 subjects): Five | related adverse events that were mild (HIV positive subjects [3]; 26 subjects): 98% | serious adverse events (HIV positive subjects [3]; 26 subjects): No patient reported serious adverse events | subjects reporting AEs (HIV positive subjects [3]; [10]): 23 subjects | total AEs reported (HIV positive subjects [3]; [10]): 74 AEs | duration of T cell responses induced by Vacc-4x peptides (HIV positive subjects [3]; before re-boost): up to seven | effect of re-boosting on CD4, CD8 and viral load (HIV positive subjects [3]; two booster administrations): no negative effect | percentage change in CD4 count between Week 28 and last CD4 assessment before resumption of ART, versus placebo ([4]; ITT analysis population): no effect compared with placebo | proportion of subjects requiring resumption of ART after ART cessation at Week 28, versus placebo ([4]; ITT analysis population): did not reduce | time to restarting ART versus placebo ([4]; ITT analysis population): similar | change in HIV-1 RNA from Week 28 through to Week 52 versus placebo ([4]; after ART cessation): statistically significant difference between groups in favour of Vacc-4x | safety concern ([4]; in vivo): No safety concern | Week 52 (LOCF) viral load versus placebo ([4]; post-hoc analysis): statistically significantly lower | average viral load versus placebo ([4]; subgroup who remained off ART until Week 52): lower in the Vacc-4x-treated subjects than the placebo group | HIV-1 RNA AUC versus placebo ([4]; subjects who remained off ART at Week 52): lower in the Vacc-4x group than in the placebo group | viral load (VL) set point versus placebo and versus historic preART values ([4]; with rhuGM-CSF (Leukine) as adjuvant): significant reduction | immunogenicity, T-cell proliferative responses ([4]; with rhuGM-CSF as adjuvant): immunogenic, inducing proliferative responses in both CD4 and CD8 T-cells | theoretical osmolality ([5]; by calculation, approx. 0.40 mg acetic acid in 0.30 mL): approximately 23 mOsmol/L | osmolality determined in the Vacc-4x batches ([5]; lyophilisate, approx. 1 mg of each peptide, reconstituted with 0.30 mL WFI): 20-23 mOsmol/kg | limiting toxicology (rabbit): no limiting toxicology | local intradermal reactions (erythema, edema) versus control animals (rabbit): slightly more pronounced | systemic reactions (rabbit): no systemic reactions | safety margin over the planned human dose level (mice; from no effect level): 500 fold | no effect level (mice; [7]): > 3 mg/kg | adverse reactions (mice; [8]): no adverse reactions | Proviral DNA, Geometric mean ([6]; Baseline, n 26): 22.3 copies/mL | Proviral DNA, Mean ([6]; Baseline, n 26): 98.4 copies/mL | Proviral DNA, Median ([6]; Baseline, n 26): 57.0 copies/mL | Proviral DNA, Geometric mean ratio (Week 4/Baseline) ([6]; n 26): 0.5 | Proviral DNA, Geometric mean ([6]; Week 4, n 26 (Table 3)): 11.4 Copies/mL | Proviral DNA, Mean ([6]; Week 4, n 26 (Table 3)): 93.9 Copies/mL | Proviral DNA, Median ([6]; Week 4, n 26 (Table 3)): 34.5 Copies/mL | Proviral DNA, Geometric mean ([6]; Week 4, n 27 (Table 2)): 12.9 copies/mL | Proviral DNA, Mean ([6]; Week 4, n 27 (Table 2)): 100.8 copies/mL | Proviral DNA, Median ([6]; Week 4, n 27 (Table 2)): 45.0 copies/mL
